Results taken from patent US8574601B2, “Sustained-release polymer micelle disruptable by HDL” (Nanocarrier Co., Ltd., priority 2010, dated 2013).

Assay: Rat intravenous administration test of polymer micelle encapsulating G-CSF (Example 1), plasma G-CSF concentration
Assay type: in vivo
Details: 100 μg/kg i.v. tail vein, male Wistar rats; FIG. 3
Experimental: PEG-pGlu (10-40, 30% Chol) was used as a block copolymer. The block copolymer was weighed in a vial. A 20 mM 2-morpholinoethanesulfonic acid monohydrate (MES) buffer (pH 5) was added thereto so as to achieve a polymer concentration of 2 mg/mL and the mixture was vigorously stirred at 4° C. overnight. The polymer solution was subjected to ultrasonic irradiation (in an ice water bath, Low, interval of 1 second, 10 minutes) using a biodisruptor (High Power Unit manufactured by NIHONSEIKI KAISHA LTD.) and then treated with a 0.22-μm membrane filter. Thus, an empty micelle solution having a polymer concentration of 2 mg/mL was obtained. […]
The solution of the polymer micelles encapsulating G-CSF obtained above was administered to male Wistar rats via the tail vein. […] The plasma G-CSF concentration was measured using a G-CSF-ELISA kit (manufactured by RayBiotech, Inc.). […]
FIG. 3 illustrates the results of Example 1 (average±SD). FIG. 3 also illustrates theoretical values for the time-course of plasma concentration of a mixed polymer micelle (1:1), which theoretical values were calculated from the results of the time-courses of the plasma concentration of the test examples using PEG-pGlu (10-40, 30% Chol) and PEG-pGlu (10-40, 60% C8).

B1: G-CSF: G-CSF solution (100 μg/mL) administered directly (protein, UniProt P09919 31-207, looked up)
Granulocyte …: TPLGPASSLPQSFLLKCLEQVRKIQGDGAALQEKLVSECATYKLCHPEELVLLGHSLGIPWAPLSSCPSQALQLAGCLSQLHSGLFLYQGLLQALEGISPELGPTLDTLQLDVADFATTIWQQMEELGMAPALQPTQGAMPAFASAFQRRAGGVLVASHLQSFLEVSYRVLRHLAQP
- retention time in plasma: extremely short
